Experimental data reported in article doi:10.1101/639963.
Each block holds one molecule with its values, some of them ahead of it.

Legend:
[1] = molecular target: Myosin VI N-terminal tail fragment, non-insert isoform (NMVI_(TAIL(NI))); test: FRET or BRET
[2] = molecular target: Myosin VI N-terminal tail fragment, large-insert isoform (NMVI_(TAIL(LI))); test: FRET or BRET
[3] = molecular target: Dab2 C-terminal region (residues 649-770) (UniProt P98082); test: FRET or BRET
[4] = molecular target: Myosin VI tail, large-insert isoform (MVI_(TAIL(LI))); test: FRET or BRET
[5] = molecular target: nuclear dot protein 52 (NDP52/CALCOCO2) (UniProt Q13137); test: FRET or BRET
[6] = molecular target: Myosin VI tail, non-insert isoform (MVI_(TAIL(NI)), aa 814-1253); test: FRET or BRET
[7] = molecular target: Myosin VI CBD (cargo-binding domain; non-insert isoform) (Homo sapiens, UniProt Q9UM54-5 1060-1253); test: fluorescence anisotropy
[8] = molecular target: T1, Dab2 C-terminal region (myosin VI binding site) (Homo sapiens, UniProt P98082 649-770); test: fluorescence anisotropy
T1 sequence: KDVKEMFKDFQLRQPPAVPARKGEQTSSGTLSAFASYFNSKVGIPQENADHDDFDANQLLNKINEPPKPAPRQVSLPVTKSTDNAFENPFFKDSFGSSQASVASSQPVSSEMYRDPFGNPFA

nuclear dot protein 52 (NDP52/CALCOCO2), sequence (Q13137 whole entry, the tested form may be a part, canonical isoform): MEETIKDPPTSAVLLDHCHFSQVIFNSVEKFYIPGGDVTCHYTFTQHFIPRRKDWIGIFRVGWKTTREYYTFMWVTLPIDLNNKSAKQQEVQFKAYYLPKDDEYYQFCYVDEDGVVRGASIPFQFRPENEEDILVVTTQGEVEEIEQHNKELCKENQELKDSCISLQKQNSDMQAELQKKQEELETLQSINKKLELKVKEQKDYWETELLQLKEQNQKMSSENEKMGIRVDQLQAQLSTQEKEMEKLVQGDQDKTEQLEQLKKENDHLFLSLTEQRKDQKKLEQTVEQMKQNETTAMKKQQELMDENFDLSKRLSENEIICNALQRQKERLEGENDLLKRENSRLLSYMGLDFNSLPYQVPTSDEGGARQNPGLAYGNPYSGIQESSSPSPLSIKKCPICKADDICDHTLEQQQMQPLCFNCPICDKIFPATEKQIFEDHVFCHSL

Molecule: Myosin VI tail, large-insert isoform (MVI_(TAIL(LI))) (domain or fragment)
Kd [3]: 3.5 µM
Kd^DIMER with 20 μM Dab2 [4]: 3.3 µM
Kd^DIMER with 20 μM NDP52 [4]: 9.3 µM
Kd [5]: 17.3 µM

B1: ds40 FAM-DNA (40 bp) (dsDNA)
DNA 1: TTAGTTGTTCGTAGTGCTCGTCTGGCTCTGGATTACCCGC
DNA 2: GCGGGTAATCCAGAGCCAGACGAGCACTACGAACAACTAA
Kd [7]: 0.14 µM
binding result [8]: no binding

Further lines, results first:

Kd with 10 μM NDP52 [1]: 4.1 µM
Kd with 10 μM Dab2 [2]: 6 µM
Molecule: Myosin VI C-terminal globular cargo binding domain (CBD) (domain or fragment)

Kd [3]: 11.6 µM
Kd [5]: 2.1 µM
Kd^DIMER with 20 μM Dab2 [6]: 5.3 µM
Kd^DIMER with 20 μM NDP52 [6]: 4.3 µM
Molecule: Myosin VI tail, non-insert isoform (MVI_(TAIL(NI)), aa 814-1253) (domain or fragment)
